Source: article PMC5025888 (Scientific Reports, 2016)

Tests used:
H1N1-PR8-NS1(RBD) = H1N1-PR8-NS1(RBD) (Influenza A virus A/Puerto …, UniProt P03496); assay: ELISA; conditions: both partners purified
H5N1-NS1-24mer = H5N1-NS1-24mer (Influenza A virus …); assay: ELISA; conditions: both partners purified
Chain of H5N1-NS1-24mer (Influenza A virus …) (O57276 30-53): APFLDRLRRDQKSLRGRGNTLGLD

Chain of H1N1-PR8-NS1(RBD) (P03496 1-70): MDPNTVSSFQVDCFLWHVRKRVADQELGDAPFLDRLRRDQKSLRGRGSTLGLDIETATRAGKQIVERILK

B1: monoclonal antibody 2H6 (antibody, V domains shown)
VH: DVKLVESGGGLVNLGGSLKLSCAASGFTFSRYYMSWVRQTPEKRLELVAAINHNSGRTYYSDTVKGRFTISRDNAKNTLYLQMSSLKSEDTALYYCTRHPLIYHGNYLDYWGQGTTLTVSS
VL: DIVLTQSPASLAVSLGQRATISCKASQSVDYDGDSYVTWYQQKPGQPPKLLIYVASNLESGIPARFSGSGSGTDFTLNIHPVEEEDAATYYCQQSNEDPWTFGGGTKLEIK
binding result (H1N1-PR8-NS1(RBD)): binds
binding result (H5N1-NS1-24mer): binds
